We go through nine molecules from US20130315910A1 (Xencor, published 2013).

In test [1] the target is T1, cynoFcγRIIb (Macaca fascicularis, UniProt A0A140HDP4).
T1 construct: extracellular region, C-terminal His- and GST-tag; also called cynomolgus monkey FcγRIIb
T1 sequence (receptor extracellular region): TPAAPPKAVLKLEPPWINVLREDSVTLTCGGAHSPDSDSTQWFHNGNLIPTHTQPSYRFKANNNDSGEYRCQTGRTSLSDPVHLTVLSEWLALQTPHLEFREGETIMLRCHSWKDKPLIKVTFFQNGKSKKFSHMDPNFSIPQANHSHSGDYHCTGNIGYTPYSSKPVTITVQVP
As to the kind of experiment: SPR.

The target of test [2] is T2, human FcγRIIb receptor protein (R&D Systems) (human, UniProt P31994 46-217).
T2 construct: Bought protein injected over captured antibody in Biacore; also called CD32b
T2 sequence (looked up): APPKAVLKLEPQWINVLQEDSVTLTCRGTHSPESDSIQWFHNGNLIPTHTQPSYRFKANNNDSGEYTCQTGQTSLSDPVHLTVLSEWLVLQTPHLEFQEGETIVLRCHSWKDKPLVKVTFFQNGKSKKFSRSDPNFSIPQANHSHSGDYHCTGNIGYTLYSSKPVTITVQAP
The experiment in a line: SPR. (In general: Surface plasmon resonance follows binding to a sensor surface in real time, without labels.)

In test [3] the target is T3, human FcγRIIa (131H), His- and GST-tagged (human, UniProt P12318 34-217).
T3 construct: also called H131 FcγRIIa; HIIa; not shown: 6xHis and GST tags of the pTT5 vector
T3 sequence (looked up): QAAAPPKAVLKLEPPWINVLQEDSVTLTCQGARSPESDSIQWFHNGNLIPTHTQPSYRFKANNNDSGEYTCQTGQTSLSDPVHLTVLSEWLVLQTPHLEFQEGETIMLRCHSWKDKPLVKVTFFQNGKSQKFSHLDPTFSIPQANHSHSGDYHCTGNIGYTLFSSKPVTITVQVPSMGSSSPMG
As to the kind of experiment: SPR.

Test [4] concerns the target T4, human FcγRIIa (131R), His- and GST-tagged (human, UniProt P12318 34-217).
T4 construct: Expressed in HEK293T cells, purified by nickel chromatography; also called R131 FcγRIIa; not shown: 6xHis and GST tags of the pTT5 vector
T4 sequence (looked up): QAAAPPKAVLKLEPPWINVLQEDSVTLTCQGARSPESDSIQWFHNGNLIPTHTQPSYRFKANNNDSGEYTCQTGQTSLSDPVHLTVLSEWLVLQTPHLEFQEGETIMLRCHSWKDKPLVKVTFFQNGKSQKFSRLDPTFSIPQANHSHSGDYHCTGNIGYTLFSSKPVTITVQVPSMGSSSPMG
As to the kind of experiment: SPR.

Test [5] addresses T5, human FcγRIIIa (158V), His- and GST-tagged (human, UniProt P08637 17-208).
T5 construct: also called V158 FcγRIIIa; VIIIa; not shown: 6xHis and GST tags of the pTT5 vector
As to the kind of experiment: SPR.

Test [6] addresses T6, human FcγRI receptor protein (R&D Systems) (human, UniProt P12314 16-288).
T6 construct: also called soluble FcγRI; solFcγRI
The experiment in a line: SPR.

In another test the target is T7, mFcγRIV.
T7 construct: also called mouse FcγRIV; not shown: C-terminal His and GST tags (named only on our card)
T7 chain: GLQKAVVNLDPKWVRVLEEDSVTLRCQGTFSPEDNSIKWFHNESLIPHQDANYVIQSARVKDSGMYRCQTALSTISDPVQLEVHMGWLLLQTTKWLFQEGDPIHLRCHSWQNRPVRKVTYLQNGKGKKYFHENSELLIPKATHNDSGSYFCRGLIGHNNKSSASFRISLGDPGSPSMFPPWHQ
The experiment in a line: SPR, off-rate.

The target in the next test is T8, mFcγRIIb (Mus musculus, UniProt P08101).
T8 construct: extracellular region, C-terminal His- and GST-tag; also called mouse FcγRII
T8 sequence (receptor extracellular region, looked up): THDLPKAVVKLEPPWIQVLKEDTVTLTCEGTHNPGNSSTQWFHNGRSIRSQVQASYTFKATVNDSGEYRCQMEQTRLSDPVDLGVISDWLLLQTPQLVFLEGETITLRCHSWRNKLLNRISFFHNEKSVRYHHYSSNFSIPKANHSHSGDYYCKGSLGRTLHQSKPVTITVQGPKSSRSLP
As to the kind of experiment: SPR, off-rate.

A further test has as its target T9, cynoFcγRIIIa (Macaca fascicularis, UniProt Q8SPW2).
T9 construct: extracellular region, C-terminal His- and GST-tag; also called cynomolgus monkey FcγRIIIa
As to the kind of experiment: SPR, off-rate.

For test [7], the target named is T1, cynoFcγRIIb. As to the kind of experiment: SPR, off-rate.
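For Fold vs WT IgG1 (off-rate) in this document: fold improvement over WT IgG1 so higher means slower dissociation than WT.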

T9 sequence (Q8SPW2 17-208): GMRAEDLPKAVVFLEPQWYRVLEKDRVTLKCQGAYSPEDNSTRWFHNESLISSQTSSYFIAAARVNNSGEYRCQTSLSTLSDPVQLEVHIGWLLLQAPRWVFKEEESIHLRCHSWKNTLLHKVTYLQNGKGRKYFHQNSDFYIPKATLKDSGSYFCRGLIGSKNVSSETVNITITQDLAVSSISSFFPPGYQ
T6 sequence (P12314 16-288 limits assumed): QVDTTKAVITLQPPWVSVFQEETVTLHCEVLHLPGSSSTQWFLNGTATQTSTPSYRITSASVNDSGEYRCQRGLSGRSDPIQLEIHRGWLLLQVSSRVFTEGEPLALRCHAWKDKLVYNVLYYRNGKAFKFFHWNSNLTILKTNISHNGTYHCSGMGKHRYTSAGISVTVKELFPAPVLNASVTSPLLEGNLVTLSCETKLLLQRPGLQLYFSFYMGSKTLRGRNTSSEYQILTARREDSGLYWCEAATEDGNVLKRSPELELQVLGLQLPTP
T5 sequence (P08637 17-208 F176V): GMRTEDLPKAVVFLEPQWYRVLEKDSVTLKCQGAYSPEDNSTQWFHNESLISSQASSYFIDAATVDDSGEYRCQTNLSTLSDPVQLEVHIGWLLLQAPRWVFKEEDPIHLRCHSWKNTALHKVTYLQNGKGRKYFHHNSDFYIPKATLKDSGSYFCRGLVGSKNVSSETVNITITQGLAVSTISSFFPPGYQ

B1: G236N/S267E (antibody, human IgG1, kappa)
heavy: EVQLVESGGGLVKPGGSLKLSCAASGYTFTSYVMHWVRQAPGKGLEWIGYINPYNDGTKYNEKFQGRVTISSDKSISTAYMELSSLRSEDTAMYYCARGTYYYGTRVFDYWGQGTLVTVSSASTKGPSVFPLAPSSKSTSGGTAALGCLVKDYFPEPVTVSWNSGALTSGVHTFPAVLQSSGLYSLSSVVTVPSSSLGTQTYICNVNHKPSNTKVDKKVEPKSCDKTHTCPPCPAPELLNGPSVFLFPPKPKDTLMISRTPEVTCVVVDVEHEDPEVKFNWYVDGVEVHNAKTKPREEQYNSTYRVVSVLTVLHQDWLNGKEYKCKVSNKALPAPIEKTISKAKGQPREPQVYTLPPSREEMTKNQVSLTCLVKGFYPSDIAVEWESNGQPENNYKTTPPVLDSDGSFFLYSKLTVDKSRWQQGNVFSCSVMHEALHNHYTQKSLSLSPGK
light: DIVMTQSPATLSLSPGERATLSCRSSKSLQNVNGNTYLYWFQQKPGQSPQLLIYRMSNLNSGVPDRFSGSGSGTEFTLTISSLEPEDFAVYYCMQHLEYPITFGAGTKLEIKRTVAAPSVFIFPPSDEQLKSGTASVVCLLNNFYPREAKVQWKVDNALQSGNSQESVTEQDSKDSTYSLSSTLTLSKADYEKHKVYACEVTHQGLSSPVTKSFNRGEC
notes: HuAM4G7 anti-CD19 IgG1 (m1) with these Fc substitutions, EU index; copies: 2 + 2
Consider B1, for which the “Fold vs WT IgG1 (off-rate)” value with cynoFcγRIIb [1] stood at 0.587 fold. The results for the “Fold vs WT IgG1” value in test [2], in [4] and in test [6] were 19.8 fold, 3.27 fold and 0.0355 fold, respectively. In addition, the Kd was 0.0742 µM in test [2], 0.263 µM in [4] and 0.00927 µM in [6]. Further, the binding result (in test [3]; in test [5]; in the test with mFcγRIV; with mFcγRIIb; in the test with cynoFcγRIIIa) was “no binding” throughout.

B2: G237K (antibody, human IgG1, kappa)
heavy: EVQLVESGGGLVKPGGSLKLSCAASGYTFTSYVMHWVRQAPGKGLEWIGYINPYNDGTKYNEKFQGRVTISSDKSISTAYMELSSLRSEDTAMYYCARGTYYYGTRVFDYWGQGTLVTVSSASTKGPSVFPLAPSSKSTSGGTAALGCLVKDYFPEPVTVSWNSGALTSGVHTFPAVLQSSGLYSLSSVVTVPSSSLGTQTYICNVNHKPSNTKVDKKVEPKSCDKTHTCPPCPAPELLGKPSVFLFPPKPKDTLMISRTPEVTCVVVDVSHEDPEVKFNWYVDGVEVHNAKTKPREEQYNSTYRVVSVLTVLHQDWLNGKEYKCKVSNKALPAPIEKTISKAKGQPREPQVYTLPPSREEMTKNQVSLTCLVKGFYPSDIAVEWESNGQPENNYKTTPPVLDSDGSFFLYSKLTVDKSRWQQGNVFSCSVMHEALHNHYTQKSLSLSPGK
light: DIVMTQSPATLSLSPGERATLSCRSSKSLQNVNGNTYLYWFQQKPGQSPQLLIYRMSNLNSGVPDRFSGSGSGTEFTLTISSLEPEDFAVYYCMQHLEYPITFGAGTKLEIKRTVAAPSVFIFPPSDEQLKSGTASVVCLLNNFYPREAKVQWKVDNALQSGNSQESVTEQDSKDSTYSLSSTLTLSKADYEKHKVYACEVTHQGLSSPVTKSFNRGEC
notes: HuAM4G7 anti-CD19 IgG1 (m1) with this Fc substitution, EU index; copies: 2 + 2
As to B2, the “Fold vs WT IgG1” value in test [2] came out at 0.0147 fold; in test [4], 0.00859 fold. Also, the dissociation constant Kd in test [2] and in test [4] was 100 µM in each case. The binding result with mFcγRIV, in the test with cynoFcγRIIb [7], in the test with mFcγRIIb and in the test with cynoFcγRIIIa was “no binding” throughout.

B3: G237E (antibody, human IgG1, kappa)
heavy: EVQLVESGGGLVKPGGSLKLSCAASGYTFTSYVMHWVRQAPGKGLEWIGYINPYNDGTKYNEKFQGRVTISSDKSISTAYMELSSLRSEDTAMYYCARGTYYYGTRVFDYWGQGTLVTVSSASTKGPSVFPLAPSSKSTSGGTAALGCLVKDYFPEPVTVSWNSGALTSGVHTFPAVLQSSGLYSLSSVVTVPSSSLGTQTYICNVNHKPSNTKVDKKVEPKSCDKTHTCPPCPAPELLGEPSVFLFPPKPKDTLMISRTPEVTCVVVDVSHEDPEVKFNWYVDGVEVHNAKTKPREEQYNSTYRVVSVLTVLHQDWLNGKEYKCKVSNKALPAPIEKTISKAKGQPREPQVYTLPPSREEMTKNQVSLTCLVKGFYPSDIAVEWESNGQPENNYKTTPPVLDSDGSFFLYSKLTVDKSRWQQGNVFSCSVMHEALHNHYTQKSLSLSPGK
light: DIVMTQSPATLSLSPGERATLSCRSSKSLQNVNGNTYLYWFQQKPGQSPQLLIYRMSNLNSGVPDRFSGSGSGTEFTLTISSLEPEDFAVYYCMQHLEYPITFGAGTKLEIKRTVAAPSVFIFPPSDEQLKSGTASVVCLLNNFYPREAKVQWKVDNALQSGNSQESVTEQDSKDSTYSLSSTLTLSKADYEKHKVYACEVTHQGLSSPVTKSFNRGEC
notes: as for B2
In the case of B3, the “Fold vs WT IgG1” value amounted to 0.0147 fold in test [2] and 0.00859 fold in [4]. Besides, the equilibrium dissociation constant (Kd) in test [2] and in [4] was 100 µM in each case. Moreover, the binding result in the test with mFcγRIV, with cynoFcγRIIb [7], with mFcγRIIb and with cynoFcγRIIIa was “no binding” in each case.

B4: G237S (antibody, human IgG1, kappa)
heavy: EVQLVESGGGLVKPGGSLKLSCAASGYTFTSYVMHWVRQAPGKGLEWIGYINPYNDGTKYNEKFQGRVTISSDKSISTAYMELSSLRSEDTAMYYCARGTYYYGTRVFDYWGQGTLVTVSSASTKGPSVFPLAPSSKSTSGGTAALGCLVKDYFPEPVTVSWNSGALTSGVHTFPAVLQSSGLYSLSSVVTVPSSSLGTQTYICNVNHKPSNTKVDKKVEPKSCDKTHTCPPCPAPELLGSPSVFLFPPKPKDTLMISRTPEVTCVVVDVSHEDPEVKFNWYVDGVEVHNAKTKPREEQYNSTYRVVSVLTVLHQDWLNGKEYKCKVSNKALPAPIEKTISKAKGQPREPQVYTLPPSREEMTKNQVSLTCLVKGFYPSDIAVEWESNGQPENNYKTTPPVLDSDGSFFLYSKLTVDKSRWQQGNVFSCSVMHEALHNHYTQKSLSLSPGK
light: DIVMTQSPATLSLSPGERATLSCRSSKSLQNVNGNTYLYWFQQKPGQSPQLLIYRMSNLNSGVPDRFSGSGSGTEFTLTISSLEPEDFAVYYCMQHLEYPITFGAGTKLEIKRTVAAPSVFIFPPSDEQLKSGTASVVCLLNNFYPREAKVQWKVDNALQSGNSQESVTEQDSKDSTYSLSSTLTLSKADYEKHKVYACEVTHQGLSSPVTKSFNRGEC
notes: as for B2
Take B4: the “Fold vs WT IgG1” value in [2] worked out at 0.147 fold; in test [4], 0.081 fold. For the same molecule, the results for the Kd in [2] and in [4] were 10 µM and 10.6 µM, respectively. The binding result with mFcγRIV, in the test with cynoFcγRIIb [7], with mFcγRIIb and with cynoFcγRIIIa was “no binding” each time.

B5: L234K (antibody, human IgG1, kappa)
heavy: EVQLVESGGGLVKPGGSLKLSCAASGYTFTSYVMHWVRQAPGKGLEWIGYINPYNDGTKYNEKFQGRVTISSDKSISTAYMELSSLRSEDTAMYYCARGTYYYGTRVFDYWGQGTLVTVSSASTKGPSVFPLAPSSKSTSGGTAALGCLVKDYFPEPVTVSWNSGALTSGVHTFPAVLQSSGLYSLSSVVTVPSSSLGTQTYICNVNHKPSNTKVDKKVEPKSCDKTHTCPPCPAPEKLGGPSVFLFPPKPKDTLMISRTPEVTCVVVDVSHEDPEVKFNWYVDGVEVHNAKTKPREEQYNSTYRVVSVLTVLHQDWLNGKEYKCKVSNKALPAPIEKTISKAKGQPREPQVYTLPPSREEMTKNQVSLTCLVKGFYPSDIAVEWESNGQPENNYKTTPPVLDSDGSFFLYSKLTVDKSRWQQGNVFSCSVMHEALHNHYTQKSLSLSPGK
light: DIVMTQSPATLSLSPGERATLSCRSSKSLQNVNGNTYLYWFQQKPGQSPQLLIYRMSNLNSGVPDRFSGSGSGTEFTLTISSLEPEDFAVYYCMQHLEYPITFGAGTKLEIKRTVAAPSVFIFPPSDEQLKSGTASVVCLLNNFYPREAKVQWKVDNALQSGNSQESVTEQDSKDSTYSLSSTLTLSKADYEKHKVYACEVTHQGLSSPVTKSFNRGEC
notes: as for B2
As for B5, the “Fold vs WT IgG1” value in test [2] stood at 0.0147 fold; in [4], 0.00859 fold. For the same molecule, the dissociation constant Kd in test [2] and in [4] was 100 µM throughout. In addition, the binding result in the test with mFcγRIV, with cynoFcγRIIb [7], with mFcγRIIb and with cynoFcγRIIIa was “no binding” in each case.

B6: G236R (antibody, human IgG1, kappa)
heavy: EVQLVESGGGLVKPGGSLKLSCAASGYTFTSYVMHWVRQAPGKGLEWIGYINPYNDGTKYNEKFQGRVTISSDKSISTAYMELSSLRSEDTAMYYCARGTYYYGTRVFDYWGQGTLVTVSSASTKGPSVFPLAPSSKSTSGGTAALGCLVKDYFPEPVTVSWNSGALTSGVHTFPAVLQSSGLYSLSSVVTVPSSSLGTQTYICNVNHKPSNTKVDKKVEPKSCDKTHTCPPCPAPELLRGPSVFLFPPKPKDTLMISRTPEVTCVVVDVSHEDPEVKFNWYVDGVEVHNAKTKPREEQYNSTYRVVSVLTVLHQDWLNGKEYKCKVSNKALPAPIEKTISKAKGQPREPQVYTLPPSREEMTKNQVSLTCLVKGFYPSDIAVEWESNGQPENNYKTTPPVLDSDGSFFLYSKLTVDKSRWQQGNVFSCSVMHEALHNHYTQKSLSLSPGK
light: DIVMTQSPATLSLSPGERATLSCRSSKSLQNVNGNTYLYWFQQKPGQSPQLLIYRMSNLNSGVPDRFSGSGSGTEFTLTISSLEPEDFAVYYCMQHLEYPITFGAGTKLEIKRTVAAPSVFIFPPSDEQLKSGTASVVCLLNNFYPREAKVQWKVDNALQSGNSQESVTEQDSKDSTYSLSSTLTLSKADYEKHKVYACEVTHQGLSSPVTKSFNRGEC
notes: as for B2
For B6, the “Fold vs WT IgG1” value amounted to 0.0147 fold in test [2] and 0.00859 fold in [4]. Also, the Kd in test [2] and in test [4] was 100 µM each time. Also, the binding result with mFcγRIV, with cynoFcγRIIb [7], in the test with mFcγRIIb and with cynoFcγRIIIa was “no binding” in each case.

B7: G236P (antibody, human IgG1, kappa)
heavy: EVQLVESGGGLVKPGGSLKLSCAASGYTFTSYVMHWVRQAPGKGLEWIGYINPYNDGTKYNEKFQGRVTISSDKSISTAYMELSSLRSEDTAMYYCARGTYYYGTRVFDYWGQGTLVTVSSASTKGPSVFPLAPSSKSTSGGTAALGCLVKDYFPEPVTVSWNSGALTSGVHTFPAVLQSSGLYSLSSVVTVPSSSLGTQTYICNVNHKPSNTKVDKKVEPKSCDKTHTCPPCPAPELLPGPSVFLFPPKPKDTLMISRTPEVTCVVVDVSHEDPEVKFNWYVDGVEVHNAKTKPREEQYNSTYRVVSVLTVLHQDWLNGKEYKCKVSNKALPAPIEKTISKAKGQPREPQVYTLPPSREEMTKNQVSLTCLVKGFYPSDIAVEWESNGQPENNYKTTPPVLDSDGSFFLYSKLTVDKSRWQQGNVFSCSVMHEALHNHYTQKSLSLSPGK
light: DIVMTQSPATLSLSPGERATLSCRSSKSLQNVNGNTYLYWFQQKPGQSPQLLIYRMSNLNSGVPDRFSGSGSGTEFTLTISSLEPEDFAVYYCMQHLEYPITFGAGTKLEIKRTVAAPSVFIFPPSDEQLKSGTASVVCLLNNFYPREAKVQWKVDNALQSGNSQESVTEQDSKDSTYSLSSTLTLSKADYEKHKVYACEVTHQGLSSPVTKSFNRGEC
notes: as for B2
With B7, the “Fold vs WT IgG1” value in test [2] came to 0.147 fold; in [4], 0.0859 fold. Moreover, the Kd in test [2] and in test [4] was 10 µM each time. Further, the binding result with mFcγRIV, with cynoFcγRIIb [7], in the test with mFcγRIIb and with cynoFcγRIIIa was “no binding” each time.

B8: P329E (antibody, human IgG1, kappa)
heavy: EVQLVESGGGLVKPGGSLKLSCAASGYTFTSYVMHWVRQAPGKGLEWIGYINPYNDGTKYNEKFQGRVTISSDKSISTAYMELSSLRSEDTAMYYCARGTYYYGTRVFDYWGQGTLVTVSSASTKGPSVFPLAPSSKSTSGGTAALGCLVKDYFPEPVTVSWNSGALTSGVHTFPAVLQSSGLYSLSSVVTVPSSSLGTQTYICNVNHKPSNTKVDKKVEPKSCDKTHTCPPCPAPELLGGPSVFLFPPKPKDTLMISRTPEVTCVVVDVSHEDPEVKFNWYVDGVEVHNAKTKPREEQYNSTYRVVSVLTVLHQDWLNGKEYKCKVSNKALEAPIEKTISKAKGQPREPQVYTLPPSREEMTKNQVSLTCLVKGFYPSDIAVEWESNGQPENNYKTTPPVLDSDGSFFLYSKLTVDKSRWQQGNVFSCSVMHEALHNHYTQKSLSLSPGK
light: DIVMTQSPATLSLSPGERATLSCRSSKSLQNVNGNTYLYWFQQKPGQSPQLLIYRMSNLNSGVPDRFSGSGSGTEFTLTISSLEPEDFAVYYCMQHLEYPITFGAGTKLEIKRTVAAPSVFIFPPSDEQLKSGTASVVCLLNNFYPREAKVQWKVDNALQSGNSQESVTEQDSKDSTYSLSSTLTLSKADYEKHKVYACEVTHQGLSSPVTKSFNRGEC
notes: as for B2
For B8, the results for the “Fold vs WT IgG1” value in test [2] and in test [4] were 0.147 fold and 0.0859 fold, respectively. Moreover, the Kd in test [2] and in [4] was 10 µM throughout. The binding result with mFcγRIV, with cynoFcγRIIb [7], in the test with mFcγRIIb and with cynoFcγRIIIa was “no binding” throughout.

B9: G237H (antibody, human IgG1, kappa)
heavy: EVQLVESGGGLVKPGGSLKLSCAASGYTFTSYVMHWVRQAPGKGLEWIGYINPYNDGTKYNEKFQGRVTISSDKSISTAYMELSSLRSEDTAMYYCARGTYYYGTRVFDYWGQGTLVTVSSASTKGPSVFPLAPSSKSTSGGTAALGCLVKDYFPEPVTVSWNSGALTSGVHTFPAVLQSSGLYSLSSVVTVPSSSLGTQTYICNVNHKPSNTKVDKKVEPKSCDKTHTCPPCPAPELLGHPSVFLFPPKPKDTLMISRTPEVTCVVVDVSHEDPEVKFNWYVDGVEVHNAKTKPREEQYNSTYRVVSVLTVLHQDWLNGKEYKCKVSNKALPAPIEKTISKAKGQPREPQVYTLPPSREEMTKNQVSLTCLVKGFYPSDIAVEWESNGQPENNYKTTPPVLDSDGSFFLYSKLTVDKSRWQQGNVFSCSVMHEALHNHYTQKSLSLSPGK
light: DIVMTQSPATLSLSPGERATLSCRSSKSLQNVNGNTYLYWFQQKPGQSPQLLIYRMSNLNSGVPDRFSGSGSGTEFTLTISSLEPEDFAVYYCMQHLEYPITFGAGTKLEIKRTVAAPSVFIFPPSDEQLKSGTASVVCLLNNFYPREAKVQWKVDNALQSGNSQESVTEQDSKDSTYSLSSTLTLSKADYEKHKVYACEVTHQGLSSPVTKSFNRGEC
notes: as for B2
Take B9: the binding result (in test [2]; in test [4]; in the test with mFcγRIV; with cynoFcγRIIb [7]; with mFcγRIIb; with cynoFcγRIIIa) was “no binding” in each case.

In general, Kd refers to a measure of binding affinity in units of concentration. A high value points to a looser complex.
